From US20260176659A1, “IMPROVED METHOD FOR THE PRODUCTION OF NATURAL VANILLIN” (BASE SE, priority 2022, published 2026)

Assays:
[1] = Bioconversion of eugenol to vanillin: one-pot concurrent cascade EUGO + alkene cleavage oxygenase (5 mM scale); type: biochemical; conditions: for Reaction composition at 24 hours (%) 1a / Reaction composition at 24 hours (%) 2a / Reaction composition at 24 hours (%) 3a / Reaction composition at 24 hours (%) 5a / Conversion of 1a to 3a (%): 5 mM 1a; for Conversion of 1a to 3a (%): 24 h; for Reaction composition after 24 hours 1a (%) / Reaction composition after 24 hours 2a (%) / Reaction composition after 24 hours 3a (%) / Reaction composition after 24 hours 5a (%): Table 8a, CO-XX FD-CFE 1 mg/mL; for Reaction composition after 24 hours 1a (%) / Reaction composition after 24 hours 2a (%) / Reaction composition after 24 hours 3a (%) / Reaction composition after 24 hours 5a (%) / Product distribution after 24 hours 2a (%) / Product distribution after 24 hours 3a (%) / Product distribution after 24 hours 5a (%): eugenol 5 mM; for Product distribution after 24 hours 2a (%) / Product distribution after 24 hours 3a (%) / Product distribution after 24 hours 5a (%): Table 8b, CO-0X FD-CFE 1 mg/mL
Procedure, shortened: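 Cell-free extracts of EUGO (0.5 mg) and cleavage oxygenase (3 mg) were combined with catalase, 1 mM FeSO4 and 1 mM ascorbate in glycine-NaOH pH 9.0 (or Tris-HCl pH 8.0). The cascade ran with 5 mM eugenol (5% ethanol/DMSO cosolvent) at 30° C and 120 rpm overnight. Methanol-quenched samples were analysed by HPLC at 280/340 nm.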

[2] = Biotransformation of isoeugenol to vanillin: pH and solvent screening; type: biochemical
Description: Stock solution of rac-isoeugenol (100 mM) was prepared in DMSO and stored at 4° C. Each reaction mixtures (1 mL) were set up as follows: rac-isoeugenol (50 μL, final concentration 5 mM) was diluted in various buffers (100 mM, pH 7.0-10.5) in 4 mL glass vials, together with FeSO4 (0.5 mM) and DMSO (150 μL; final concentration including the part from substrate stock: 20% v/v). The reaction was initiated by the addition of IECO (cell free extract 1 mg/mL). Wild type E. coli BL21 (DE3) was used as negative control. The reaction was incubated for 24 hours at 30° C. and 120 rpm (rotary shaker). To improve the oxygenation, the vials were placed horizontally. The reaction was quenched with methanol (2 vol. equiv.), centrifuged at 20238 g for 5-10 mins and analysed by HPLC.
Stock solutions of rac-isoeugenol (100 mM) were prepared in different solvents and stored in the dark at 4° C. Each reaction mixtures (1 mL) were set up as follows: ra-isoeugenol (50 μL, final concentration 5 mM) was diluted in Glycine-NaOH (100 mM, pH 9.5) in 4 mL glass vials, together with FeSO4 (0.5 mM) and the respective cosolvent (0, 50 or 150 μL; final content of cosolvent including the part from the substrate stock: 5, 10 and 20% v/v). The reaction was initiated by the addition of IECO (cell free extract 1 mg/mL). […] The reaction was quenched with methanol (2 vol. equiv.), centrifuged at 20238 g and analysed by HPLC.

[3] = EUGO 0 mg/mL, IECO fresh CFE 4 mg/mL, cosolvent DMSO 5% v/v
[4] = EUGO 0 mg/mL, IECO fresh CFE 4 mg/mL, cosolvent EtOH 5% v/v
[5] = EUGO FD-CFE 1 mg/mL (row prints 2, see doubts), IECO FD-CFE 4 mg/mL, pH 9.0, catalase 10 mg/mL
[6] = EUGO FD-CFE 1 mg/mL, IECO FD-CFE 4 mg/mL, pH 8.0, catalase 10 mg/mL
[7] = EUGO FD-CFE 1 mg/mL, IECO FD-CFE 6 mg/mL, pH 8.0, catalase 10 mg/mL
[8] = EUGO FD-CFE 1 mg/mL, IECO FD-CFE 6 mg/mL, pH 9.0, catalase 10 mg/mL
[9] = EUGO FD-CFE 2 mg/mL, IECO FD-CFE 4 mg/mL, pH 8.0, catalase 10 mg/mL
[10] = EUGO FD-CFE 2 mg/mL, IECO FD-CFE 4 mg/mL, pH 9.0, catalase 10 mg/mL
[11] = EUGO FD-CFE 2 mg/mL, IECO FD-CFE 6 mg/mL, pH 8.0, catalase 10 mg/mL
[12] = EUGO FD-CFE 2 mg/mL, IECO FD-CFE 6 mg/mL, pH 9.0, catalase 10 mg/mL
[13] = EUGO FD-CFE 5 mg/mL, IECO FD-CFE 20 mg/mL, pH 8.0, catalase 10 mg/mL
[14] = EUGO FD-CFE 5 mg/mL, IECO FD-CFE 20 mg/mL, pH 9.0, catalase 10 mg/mL
[15] = EUGO fresh CFE 1 mg/mL, IECO fresh CFE 4 mg/mL, cosolvent DMSO 5% v/v
[16] = EUGO fresh CFE 1 mg/mL, IECO fresh CFE 4 mg/mL, cosolvent EtOH 5% v/v
[17] = EUGO FD-CFE 1 mg/mL, catalase 10 mg/mL, pH 8.0
[18] = EUGO FD-CFE 1 mg/mL, catalase 10 mg/mL, pH 9.0
[19] = replicates of concurrent cascade with EUGO, pH 8.0, SD of four experiments
[20] = replicates of concurrent cascade with EUGO, pH 9.0, SD of four experiments

B1: IECO: isoeugenol cleavage oxygenase from Pseudomonas nitroreducens (GenBank: ACP17973), SEQ ID NO: 24 (protein, listed as Pseudomonas nitroreducens)
chain: MARLNRNDPQLVGTLLPTRIEADLFDLEVDGEIPKSINGTFYRNTPEPQVTPQKFHTFIDGDGMASAFHFEDGHVDFISRWVKTARFTAERLARKSLFGMYRNPYTDDTSVKGLDRTVANTSIISHHGKVLAVKEDGLPYELDPRTLETRGRFDYDGQVTSQTHTAHPKYDPETGDLLFFGSAAKGEATPDMAYYIVDKHGKVTHETWFEQPYGAFMHDFAITRNWSIFPIMPATNSLSRLKAKQPIYMWEPELGSYIGVLPRRGQGSQIRWLKAPALWVFHVVNAWEVGTKIYIDLMESEILPFPFPNSQNQPFAPEKAVPRLTRWEIDLDSSSDEIKRTRLHDFFAEMPIMDFRFALQCNRYGFMGVDDPRKPLAHQQAEKIFAYNSLGIWDNHRGDYDLWYSGEASAAQEPAFVPRSPTAAEGDGYLLTVVGRLDENRSDLVILDTQDIQSGPVATIKLPFRLRAALHGCWVPRP
- Reaction composition at 24 hours (%) 1a [1, 3]: 97%
- Reaction composition at 24 hours (%) 2a [1, 3]: 2≤ %
- Reaction composition at 24 hours (%) 3a [1, 3]: 1≤ %
- Reaction composition at 24 hours (%) 5a [1, 3]: 1≤ %
- Conversion of 1a to 3a (%) [1, 3]: 1≤ %
- Reaction composition at 24 hours (%) 1a [1, 4]: 97%
- Reaction composition at 24 hours (%) 2a [1, 4]: 2≤ %
- Reaction composition at 24 hours (%) 3a [1, 4]: 1≤ %
- Reaction composition at 24 hours (%) 5a [1, 4]: 1≤ %
- Conversion of 1a to 3a (%) [1, 4]: 1≤ %
- Reaction composition at 24 hours (%) 1a [1, 5]: 2%
- Reaction composition at 24 hours (%) 2a [1, 5]: 3%
- Reaction composition at 24 hours (%) 3a [1, 5]: 53%
- Reaction composition at 24 hours (%) 5a [1, 5]: 1≤ %
- Conversion of 1a to 3a (%) [1, 5]: 45%
- Reaction composition at 24 hours (%) 1a [1, 6]: 1%
- Reaction composition at 24 hours (%) 2a [1, 6]: 5%
- Reaction composition at 24 hours (%) 3a [1, 6]: 45%
- Reaction composition at 24 hours (%) 5a [1, 6]: 1≤ %
- Conversion of 1a to 3a (%) [1, 6]: 40%
- Reaction composition at 24 hours (%) 1a [1, 7]: 2%
- Reaction composition at 24 hours (%) 2a [1, 7]: 4%
- Reaction composition at 24 hours (%) 3a [1, 7]: 49%
- Reaction composition at 24 hours (%) 5a [1, 7]: 1%
- Conversion of 1a to 3a (%) [1, 7]: 44%
- Reaction composition at 24 hours (%) 1a [1, 8]: 3%
- Reaction composition at 24 hours (%) 2a [1, 8]: 3%
- Reaction composition at 24 hours (%) 3a [1, 8]: 59%
- Reaction composition at 24 hours (%) 5a [1, 8]: 1%
- Conversion of 1a to 3a (%) [1, 8]: 50%
- Reaction composition at 24 hours (%) 1a [1, 9]: 2%
- Reaction composition at 24 hours (%) 2a [1, 9]: 4%
- Reaction composition at 24 hours (%) 3a [1, 9]: 48%
- Reaction composition at 24 hours (%) 5a [1, 9]: 2%
- Conversion of 1a to 3a (%) [1, 9]: 40%
- Reaction composition at 24 hours (%) 1a [1, 10]: 1%
- Reaction composition at 24 hours (%) 2a [1, 10]: 4%
- Reaction composition at 24 hours (%) 3a [1, 10]: 52%
- Reaction composition at 24 hours (%) 5a [1, 10]: 2%
- Conversion of 1a to 3a (%) [1, 10]: 44%
- Reaction composition at 24 hours (%) 1a [1, 11]: 3%
- Reaction composition at 24 hours (%) 2a [1, 11]: 5%
- Reaction composition at 24 hours (%) 3a [1, 11]: 44%
- Reaction composition at 24 hours (%) 5a [1, 11]: 3%
- Conversion of 1a to 3a (%) [1, 11]: 41%
- Reaction composition at 24 hours (%) 1a [1, 12]: 3%
- Reaction composition at 24 hours (%) 2a [1, 12]: 4%
- Reaction composition at 24 hours (%) 3a [1, 12]: 50%
- Reaction composition at 24 hours (%) 5a [1, 12]: 2%
- Conversion of 1a to 3a (%) [1, 12]: 49%
- Reaction composition at 24 hours (%) 1a [1, 13]: 1≤ %
- Reaction composition at 24 hours (%) 2a [1, 13]: 27%
- Reaction composition at 24 hours (%) 3a [1, 13]: 9%
- Reaction composition at 24 hours (%) 5a [1, 13]: 6%
- Conversion of 1a to 3a (%) [1, 13]: 8%
- Reaction composition at 24 hours (%) 1a [1, 14]: 1≤ %
- Reaction composition at 24 hours (%) 2a [1, 14]: 18%
- Reaction composition at 24 hours (%) 3a [1, 14]: 15%
- Reaction composition at 24 hours (%) 5a [1, 14]: 5%
- Conversion of 1a to 3a (%) [1, 14]: 13%
- Reaction composition at 24 hours (%) 1a [1, 15]: 3%
- Reaction composition at 24 hours (%) 2a [1, 15]: 49%
- Reaction composition at 24 hours (%) 3a [1, 15]: 44 ^ %
- Reaction composition at 24 hours (%) 5a [1, 15]: 4%
- Conversion of 1a to 3a (%) [1, 15]: 42 ^ %
- Reaction composition at 24 hours (%) 1a [1, 16]: 4%
- Reaction composition at 24 hours (%) 2a [1, 16]: 5%
- Reaction composition at 24 hours (%) 3a [1, 16]: 86 ^ %
- Reaction composition at 24 hours (%) 5a [1, 16]: 5%
- Conversion of 1a to 3a (%) [1, 16]: 48 ^ %
- Reaction composition after 24 hours 1a (%) [1, 17]: 51%
- Reaction composition after 24 hours 2a (%) [1, 17]: 52%
- Reaction composition after 24 hours 3a (%) [1, 17]: 36%
- Reaction composition after 24 hours 5a (%) [1, 17]: 12%
- Reaction composition after 24 hours 1a (%) [1, 18]: ≤1%
- Reaction composition after 24 hours 2a (%) [1, 18]: 24%
- Reaction composition after 24 hours 3a (%) [1, 18]: 59%
- Reaction composition after 24 hours 5a (%) [1, 18]: 18%
- Product distribution after 24 hours 2a (%) [1, 17]: 67.8%
- Product distribution after 24 hours 3a (%) [1, 17]: 17.6%
- Product distribution after 24 hours 5a (%) [1, 17]: 14.6%
- Product distribution after 24 hours 2a (%) [1, 18]: 49.4%
- Product distribution after 24 hours 3a (%) [1, 18]: 30.7%
- Product distribution after 24 hours 5a (%) [1, 18]: 19.9%
- Conversion of 1a to 3a (%) [1, 19]: 31 ± 2%
- Reaction composition at 24 hours (%) 1a [1, 19]: 1≤ %
- Reaction composition at 24 hours (%) 2a [1, 19]: 51 ± 2%
- Reaction composition at 24 hours (%) 3a [1, 19]: 34 ± 2%
- Reaction composition at 24 hours (%) 5a [1, 19]: 15 ± 3%
- Conversion of 1a to 3a (%) [1, 20]: 52 ± 3%
- Reaction composition at 24 hours (%) 1a [1, 20]: 1≤ %
- Reaction composition at 24 hours (%) 2a [1, 20]: 22 ± 2%
- Reaction composition at 24 hours (%) 3a [1, 20]: 59 ± 1%
- Reaction composition at 24 hours (%) 5a [1, 20]: 18 ± 1%
- overall conversion of 1a to vanillin 3a in the 2-step cascade ([1]; with EUGO, 5 mM substrate concentration): 50%
- pH optimum of activity toward isoeugenol ([2]; rac-isoeugenol 5 mM, buffers pH 7.0-10.5): 9.0
- cosolvent tolerance, activity toward isoeugenol ([2]; solvent screening 5, 10 and 20% v/v): tolerates a panel of cosolvents, with a preference for ethanol and DMSO
